According to the supplement of paper PMC7125110:
± gives the standard error. Variants at the floor of the assay were thinned out.

B1: glmS ribozyme (parent)
chain: AUAAAAGCGCCAGAACUACAGAAAUGUAGUUGACGAGGAGGAGGUUUAUCGAAUUUUCGGCGGAUGCCUCCAAA

Experiments:
Details in all cases: with glucosamine-6-phosphate
glucosamine-6-phosphate [1] = variants of: B1; experiment: self-cleavage kobs at 640 uM GlcN6P; higher = faster cleavage; RNA array
Summary of the method: (§1)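 Tiles bearing barcoded ribozyme variants, transcribed in situ by E. coli RNA polymerase on sequenced MiSeq chips, were imaged over ~14 h at 37 °C using a hybridised Cy3 probe. Glucosamine-6-phosphate was supplied at 40 μM to 10 mM in HEPES/KCl/Mg(OAc)2 buffer. kobs came from one- or two-exponential decay fits to normalised per-tile medians, and weighted Michaelis–Menten fits then provided kcat and KM.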

glucosamine-6-phosphate [2] = variants of: B1; experiment: self-cleavage kobs at 2500 uM GlcN6P; higher = faster cleavage; RNA array
Summary of the method: as §1

glucosamine-6-phosphate [3] = variants of: B1; experiment: self-cleavage kobs at 10000 uM GlcN6P; higher = faster cleavage; RNA array
Summary of the method: as §1

G44C U56C G59U
self-cleavage kobs at 640 uM GlcN6P (glucosamine-6-phosphate [1]): < 1e-05 s⁻¹
self-cleavage kobs at 2500 uM GlcN6P (glucosamine-6-phosphate [2]): < 1e-05 s⁻¹

A36C U57C C67U
self-cleavage kobs at 640 uM GlcN6P (glucosamine-6-phosphate [1]): < 1e-05 s⁻¹
self-cleavage kobs at 2500 uM GlcN6P (glucosamine-6-phosphate [2]): < 1e-05 s⁻¹

G40C G43C C70A
self-cleavage kobs at 640 uM GlcN6P (glucosamine-6-phosphate [1]): < 1e-05 s⁻¹
self-cleavage kobs at 2500 uM GlcN6P (glucosamine-6-phosphate [2]): < 1e-05 s⁻¹

C34U A39C A53U
self-cleavage kobs at 640 uM GlcN6P (glucosamine-6-phosphate [1]): < 1e-05 s⁻¹
self-cleavage kobs at 2500 uM GlcN6P (glucosamine-6-phosphate [2]): < 1e-05 s⁻¹

G38U G44C U56C
self-cleavage kobs at 640 uM GlcN6P (glucosamine-6-phosphate [1]): < 1e-05 s⁻¹
self-cleavage kobs at 2500 uM GlcN6P (glucosamine-6-phosphate [2]): < 1e-05 s⁻¹

G40U G43U A48C U56A U65A
self-cleavage kobs at 640 uM GlcN6P (glucosamine-6-phosphate [1]): < 1e-05 s⁻¹

A39U A52G U54G U57C
self-cleavage kobs at 640 uM GlcN6P (glucosamine-6-phosphate [1]): 3.84e-05 ± 1.7e-05 s⁻¹
self-cleavage kobs at 2500 uM GlcN6P (glucosamine-6-phosphate [2]): 0.00016 ± 4.9e-05 s⁻¹

G35C C58A C67U
self-cleavage kobs at 640 uM GlcN6P (glucosamine-6-phosphate [1]): < 1e-05 s⁻¹

G43U G51C G59C G62U C68U
self-cleavage kobs at 640 uM GlcN6P (glucosamine-6-phosphate [1]): < 1e-05 s⁻¹

G41U A52C U65A
self-cleavage kobs at 640 uM GlcN6P (glucosamine-6-phosphate [1]): < 1e-05 s⁻¹

A36C U69A
self-cleavage kobs at 640 uM GlcN6P (glucosamine-6-phosphate [1]): 6.08e-05 ± 1.6e-05 s⁻¹
self-cleavage kobs at 2500 uM GlcN6P (glucosamine-6-phosphate [2]): 0.000182 ± 4.6e-05 s⁻¹

G35A G40U G44U U45C A52U
self-cleavage kobs at 640 uM GlcN6P (glucosamine-6-phosphate [1]): < 1e-05 s⁻¹

C34A G35U A42C
self-cleavage kobs at 640 uM GlcN6P (glucosamine-6-phosphate [1]): < 1e-05 s⁻¹

C34A G41C C70U
self-cleavage kobs at 640 uM GlcN6P (glucosamine-6-phosphate [1]): < 1e-05 s⁻¹

G43U G63U C71G
self-cleavage kobs at 640 uM GlcN6P (glucosamine-6-phosphate [1]): < 1e-05 s⁻¹
self-cleavage kobs at 2500 uM GlcN6P (glucosamine-6-phosphate [2]): < 1e-05 s⁻¹

G38U A42G A53U
self-cleavage kobs at 640 uM GlcN6P (glucosamine-6-phosphate [1]): < 1e-05 s⁻¹

A39U A52C A53G A64U
self-cleavage kobs at 640 uM GlcN6P (glucosamine-6-phosphate [1]): < 1e-05 s⁻¹
self-cleavage kobs at 2500 uM GlcN6P (glucosamine-6-phosphate [2]): < 1e-05 s⁻¹

G35A G60U C70G
self-cleavage kobs at 640 uM GlcN6P (glucosamine-6-phosphate [1]): < 1e-05 s⁻¹
self-cleavage kobs at 2500 uM GlcN6P (glucosamine-6-phosphate [2]): < 1e-05 s⁻¹

G37A A64U C71U
self-cleavage kobs at 640 uM GlcN6P (glucosamine-6-phosphate [1]): < 1e-05 s⁻¹
self-cleavage kobs at 2500 uM GlcN6P (glucosamine-6-phosphate [2]): < 1e-05 s⁻¹

A42C G43U G44U G51U
self-cleavage kobs at 640 uM GlcN6P (glucosamine-6-phosphate [1]): < 1e-05 s⁻¹

A42G A53U C67G
self-cleavage kobs at 640 uM GlcN6P (glucosamine-6-phosphate [1]): 0.00199 ± 0.00049 s⁻¹
self-cleavage kobs at 10000 uM GlcN6P (glucosamine-6-phosphate [3]): 0.00458 ± 0.0017 s⁻¹

G41U C50U G63U
self-cleavage kobs at 640 uM GlcN6P (glucosamine-6-phosphate [1]): < 1e-05 s⁻¹
self-cleavage kobs at 2500 uM GlcN6P (glucosamine-6-phosphate [2]): < 1e-05 s⁻¹
self-cleavage kobs at 10000 uM GlcN6P (glucosamine-6-phosphate [3]): < 1e-05 s⁻¹

G38C U49A
self-cleavage kobs at 640 uM GlcN6P (glucosamine-6-phosphate [1]): < 1e-05 s⁻¹
self-cleavage kobs at 2500 uM GlcN6P (glucosamine-6-phosphate [2]): < 1e-05 s⁻¹
self-cleavage kobs at 10000 uM GlcN6P (glucosamine-6-phosphate [3]): < 1e-05 s⁻¹

A36G U45A C61U U69G C70A
self-cleavage kobs at 640 uM GlcN6P (glucosamine-6-phosphate [1]): < 1e-05 s⁻¹
self-cleavage kobs at 2500 uM GlcN6P (glucosamine-6-phosphate [2]): < 1e-05 s⁻¹

G38U U69A
self-cleavage kobs at 640 uM GlcN6P (glucosamine-6-phosphate [1]): 0.000186 ± 9e-05 s⁻¹

G35A G59A G62U
self-cleavage kobs at 640 uM GlcN6P (glucosamine-6-phosphate [1]): < 1e-05 s⁻¹

G41C A42C C50G
self-cleavage kobs at 640 uM GlcN6P (glucosamine-6-phosphate [1]): < 1e-05 s⁻¹

A33C C50A C68A
self-cleavage kobs at 640 uM GlcN6P (glucosamine-6-phosphate [1]): < 1e-05 s⁻¹
self-cleavage kobs at 2500 uM GlcN6P (glucosamine-6-phosphate [2]): < 1e-05 s⁻¹

G35U C67G C68G
self-cleavage kobs at 640 uM GlcN6P (glucosamine-6-phosphate [1]): 6.14e-05 ± 2.2e-05 s⁻¹

A33U A52G C68G C71G
self-cleavage kobs at 640 uM GlcN6P (glucosamine-6-phosphate [1]): 0.000207 ± 7.3e-05 s⁻¹
self-cleavage kobs at 2500 uM GlcN6P (glucosamine-6-phosphate [2]): 9.93e-05 ± 4e-05 s⁻¹

C34G G35A G63U
self-cleavage kobs at 640 uM GlcN6P (glucosamine-6-phosphate [1]): < 1e-05 s⁻¹
self-cleavage kobs at 10000 uM GlcN6P (glucosamine-6-phosphate [3]): < 1e-05 s⁻¹

A33U G38U
self-cleavage kobs at 640 uM GlcN6P (glucosamine-6-phosphate [1]): < 1e-05 s⁻¹
self-cleavage kobs at 2500 uM GlcN6P (glucosamine-6-phosphate [2]): < 1e-05 s⁻¹
self-cleavage kobs at 10000 uM GlcN6P (glucosamine-6-phosphate [3]): < 1e-05 s⁻¹

U45G A52C U55C C70G
self-cleavage kobs at 640 uM GlcN6P (glucosamine-6-phosphate [1]): < 1e-05 s⁻¹
self-cleavage kobs at 2500 uM GlcN6P (glucosamine-6-phosphate [2]): < 1e-05 s⁻¹

C34U C50G U54A
self-cleavage kobs at 640 uM GlcN6P (glucosamine-6-phosphate [1]): 0.000235 ± 6.6e-05 s⁻¹
self-cleavage kobs at 2500 uM GlcN6P (glucosamine-6-phosphate [2]): 0.000344 ± 0.0001 s⁻¹

G38U U46A G59A C70A
self-cleavage kobs at 640 uM GlcN6P (glucosamine-6-phosphate [1]): < 1e-05 s⁻¹
self-cleavage kobs at 2500 uM GlcN6P (glucosamine-6-phosphate [2]): < 1e-05 s⁻¹

G40A G44U
self-cleavage kobs at 640 uM GlcN6P (glucosamine-6-phosphate [1]): < 1e-05 s⁻¹

A42G C68G
self-cleavage kobs at 640 uM GlcN6P (glucosamine-6-phosphate [1]): 7.72e-05 ± 2.8e-05 s⁻¹
self-cleavage kobs at 2500 uM GlcN6P (glucosamine-6-phosphate [2]): 0.000308 ± 7.3e-05 s⁻¹
self-cleavage kobs at 10000 uM GlcN6P (glucosamine-6-phosphate [3]): 0.000128 ± 2.2e-05 s⁻¹

A36C C67A
self-cleavage kobs at 640 uM GlcN6P (glucosamine-6-phosphate [1]): < 1e-05 s⁻¹

G35A A39C U47C U56G
self-cleavage kobs at 640 uM GlcN6P (glucosamine-6-phosphate [1]): < 1e-05 s⁻¹

A33C U45C U56G G62A U65C
self-cleavage kobs at 640 uM GlcN6P (glucosamine-6-phosphate [1]): < 1e-05 s⁻¹

G35A A53C G63C
self-cleavage kobs at 640 uM GlcN6P (glucosamine-6-phosphate [1]): < 1e-05 s⁻¹
self-cleavage kobs at 2500 uM GlcN6P (glucosamine-6-phosphate [2]): < 1e-05 s⁻¹

A36U G40U A42G
self-cleavage kobs at 640 uM GlcN6P (glucosamine-6-phosphate [1]): < 1e-05 s⁻¹

A39U A48U A53C
self-cleavage kobs at 640 uM GlcN6P (glucosamine-6-phosphate [1]): < 1e-05 s⁻¹

C34U G38A A42G
self-cleavage kobs at 640 uM GlcN6P (glucosamine-6-phosphate [1]): < 1e-05 s⁻¹

A39G G51C U65C U69A C70A
self-cleavage kobs at 640 uM GlcN6P (glucosamine-6-phosphate [1]): < 1e-05 s⁻¹
self-cleavage kobs at 2500 uM GlcN6P (glucosamine-6-phosphate [2]): < 1e-05 s⁻¹

G38U C50U C58A U69A
self-cleavage kobs at 640 uM GlcN6P (glucosamine-6-phosphate [1]): 0.000295 ± 9.9e-05 s⁻¹
self-cleavage kobs at 2500 uM GlcN6P (glucosamine-6-phosphate [2]): 0.000466 ± 0.00018 s⁻¹

G43A G44U C68G
self-cleavage kobs at 640 uM GlcN6P (glucosamine-6-phosphate [1]): < 1e-05 s⁻¹
self-cleavage kobs at 2500 uM GlcN6P (glucosamine-6-phosphate [2]): < 1e-05 s⁻¹

G43C U46G U56G
self-cleavage kobs at 640 uM GlcN6P (glucosamine-6-phosphate [1]): < 1e-05 s⁻¹

G35A G41U U54C
self-cleavage kobs at 640 uM GlcN6P (glucosamine-6-phosphate [1]): < 1e-05 s⁻¹
self-cleavage kobs at 2500 uM GlcN6P (glucosamine-6-phosphate [2]): < 1e-05 s⁻¹

G40A A48U U56A G59U C68A
self-cleavage kobs at 640 uM GlcN6P (glucosamine-6-phosphate [1]): < 1e-05 s⁻¹
self-cleavage kobs at 2500 uM GlcN6P (glucosamine-6-phosphate [2]): < 1e-05 s⁻¹

G41C U47A U56C
self-cleavage kobs at 640 uM GlcN6P (glucosamine-6-phosphate [1]): < 1e-05 s⁻¹

C34A A39C G41A G66U
self-cleavage kobs at 640 uM GlcN6P (glucosamine-6-phosphate [1]): < 1e-05 s⁻¹
self-cleavage kobs at 2500 uM GlcN6P (glucosamine-6-phosphate [2]): < 1e-05 s⁻¹

G35C A39C A52U G60C G63U
self-cleavage kobs at 640 uM GlcN6P (glucosamine-6-phosphate [1]): < 1e-05 s⁻¹
self-cleavage kobs at 2500 uM GlcN6P (glucosamine-6-phosphate [2]): < 1e-05 s⁻¹

G40A G43U C50A
self-cleavage kobs at 640 uM GlcN6P (glucosamine-6-phosphate [1]): < 1e-05 s⁻¹

G35U A39U G62A
self-cleavage kobs at 640 uM GlcN6P (glucosamine-6-phosphate [1]): < 1e-05 s⁻¹
self-cleavage kobs at 2500 uM GlcN6P (glucosamine-6-phosphate [2]): < 1e-05 s⁻¹

G35C G38A C68G
self-cleavage kobs at 640 uM GlcN6P (glucosamine-6-phosphate [1]): 0.00152 ± 0.00066 s⁻¹

U45A U57A
self-cleavage kobs at 640 uM GlcN6P (glucosamine-6-phosphate [1]): 0.000159 ± 4.5e-05 s⁻¹
self-cleavage kobs at 2500 uM GlcN6P (glucosamine-6-phosphate [2]): 0.000423 ± 7.9e-05 s⁻¹

C34G C58U C68G
self-cleavage kobs at 640 uM GlcN6P (glucosamine-6-phosphate [1]): 9.4e-05 ± 2.9e-05 s⁻¹

G35U G63U U65A
self-cleavage kobs at 640 uM GlcN6P (glucosamine-6-phosphate [1]): < 1e-05 s⁻¹
self-cleavage kobs at 2500 uM GlcN6P (glucosamine-6-phosphate [2]): < 1e-05 s⁻¹

A39G U49A G60U
self-cleavage kobs at 640 uM GlcN6P (glucosamine-6-phosphate [1]): < 1e-05 s⁻¹
self-cleavage kobs at 2500 uM GlcN6P (glucosamine-6-phosphate [2]): < 1e-05 s⁻¹

G43U U47C G63U
self-cleavage kobs at 640 uM GlcN6P (glucosamine-6-phosphate [1]): < 1e-05 s⁻¹
self-cleavage kobs at 2500 uM GlcN6P (glucosamine-6-phosphate [2]): < 1e-05 s⁻¹

A33G A53C A64U
self-cleavage kobs at 640 uM GlcN6P (glucosamine-6-phosphate [1]): < 1e-05 s⁻¹

G35A G43C A53U U54A
self-cleavage kobs at 640 uM GlcN6P (glucosamine-6-phosphate [1]): < 1e-05 s⁻¹
self-cleavage kobs at 2500 uM GlcN6P (glucosamine-6-phosphate [2]): < 1e-05 s⁻¹

G43A G44A C58U
self-cleavage kobs at 640 uM GlcN6P (glucosamine-6-phosphate [1]): < 1e-05 s⁻¹

G43C U45G G63C U69G
self-cleavage kobs at 640 uM GlcN6P (glucosamine-6-phosphate [1]): < 1e-05 s⁻¹
